Earlier results on one substance are cited in publication PMC4278352.

pKd: −log10 of the molar value.

The term pKd denotes the Kd on a negative log10 scale, so that one unit is a factor of ten.

For the data set, the target named is PikAIII docking domain (Streptomyces venezuelae) (UniProt Q9ZGI3).
Sequence of UniProt Q9ZGI3 (Q9ZGI3 1-34): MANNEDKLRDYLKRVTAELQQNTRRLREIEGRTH

On to “PikAII docking domain (from UniProt Q9ZGI4)”, for which the pKd is 5.30.
